Source: publication PMC11445581

Assays:
[1] = molecular target: Anaphase Promoting Complex/Cyclosome (APC/C), endogenous, with APC8-mScarlet (human (endogenous in RPE-1)) (UniProt Q9UJX2); assay: fluorescence cross-correlation spectroscopy (FCCS); in living RPE-1 Cyclin B1-mEmerald+/+; APC8-mScarlet+/+ cells (metaphase by p-0009), measured at the spindle fibres; apparent
[2] = molecular target: Anaphase Promoting Complex/Cyclosome (APC/C), endogenous, with APC8-mScarlet (human (endogenous in RPE-1)) (UniProt Q9UJX2); assay: fluorescence cross-correlation spectroscopy (FCCS); in living RPE-1 Cyclin B1-mEmerald+/+; APC8-mScarlet+/+ cells (metaphase by p-0009), measured at the spindle poles; apparent
[3] = molecular target: Anaphase Promoting Complex/Cyclosome (APC/C), endogenous, with APC8-mScarlet (human (endogenous in RPE-1)) (UniProt Q9UJX2); assay: fluorescence cross-correlation spectroscopy (FCCS); in living RPE-1 Cyclin B1-mEmerald+/+; APC8-mScarlet+/+ cells (metaphase by p-0009), measured in the cytoplasm; apparent
[4] = molecular target: Anaphase Promoting Complex/Cyclosome (APC/C), endogenous, with APC8-mScarlet (human (endogenous in RPE-1)) (UniProt Q9UJX2); assay: fluorescence cross-correlation spectroscopy (FCCS); in living RPE-1 Cyclin B1-mEmerald+/+; APC8-mScarlet+/+ cells (metaphase by p-0009), measured at the chromosomes; apparent
[5] = molecular target: Nucleosome Core Particle NCP147, P04908;P68431;P62805; assay: EMSA; conditions: 2 µM Cyclin B1; parent: est. 18; read off a plot
[6] = molecular target: Anaphase Promoting Complex/Cyclosome (APC/C) with APC8-mScarlet, endogenous (human (endogenous in RPE-1)) (UniProt Q9UJX2); assay: fluorescence cross-correlation spectroscopy (FCCS); living RPE-1 Cyclin B1-mEmerald+/+; APC8-mScarlet+/+ cells in metaphase (untreated; similar with MG132), measured at the chromatin (chromosomes); in vivo KD
[7] = molecular target: Anaphase Promoting Complex/Cyclosome (APC/C) with APC8-mScarlet, endogenous (human (endogenous in RPE-1)) (UniProt Q9UJX2); assay: fluorescence cross-correlation spectroscopy (FCCS); living RPE-1 Cyclin B1-mEmerald+/+; APC8-mScarlet+/+ cells in metaphase (untreated; similar with MG132), measured in the cytoplasm; in vivo KD

Substance: Cyclin B1-mEmerald (endogenous) (from UniProt P14635 1-433) (natural protein)
- Kd [1]: 71 nM
- Kd [2]: 81 nM
- Kd [3]: 176 nM
- Kd [4]: 83 nM

Substance: Cyclin B1^WT-StrepII, full length (from UniProt P14635) R4E; R7E
- other: Unbound NCP147 (%) [5]: 54%

Substance: Cyclin B1-mEmerald (endogenous, both alleles tagged) (from UniProt P14635 1-433) (natural protein)
- Kd [6]: 80 nM
- Kd [7]: 180 nM

Substance: Cyclin B1^WT-StrepII, full length (from UniProt P14635) L3A; R4A; V5A; T6A; R7A
- other: Unbound NCP147 (%) [5]: 85%
